According to the Human Domainome abundance scans (Beltran et al. 2025):
± gives the uncertainty stated by the source.

Assay: abundance fitness (aPCA) (normalised: wild type 0, dead -1); higher = more abundant; growth selection in yeast, the domain comes from the species named
Conditions: Homo sapiens

| Substance | abundance fitness |
| --- | --- |
| Transcriptional activator Myb R176A, P10242 | -0.217 ± 0.065 |
| Transcriptional activator Myb Q195S, P10242 | -0.054 ± 0.1 |
| Transcriptional activator Myb R176M, P10242 | -0.584 ± 0.11 |
| Transcriptional activator Myb E168S, P10242 | -0.325 ± 0.084 |
| Transcriptional activator Myb K182S, P10242 | -0.161 ± 0.069 |
| Transcriptional activator Myb R191W, P10242 | -0.017 ± 0.088 |
| Transcriptional activator Myb T145L, P10242 | -0.122 ± 0.13 |
| Transcriptional activator Myb E201K, P10242 | -0.272 ± 0.16 |
| Transcriptional activator Myb K144L, P10242 | -0.101 ± 0.084 |
| Transcriptional activator Myb T148P, P10242 | -0.597 ± 0.045 |
| Transcriptional activator Myb R190E, P10242 | -0.161 ± 0.093 |
| Transcriptional activator Myb R190Q, P10242 | 0.026 ± 0.12 |
| Transcriptional activator Myb K143D, P10242 | -0.192 ± 0.19 |
| Transcriptional activator Myb R176D, P10242 | -0.66 ± 0.14 |
| Transcriptional activator Myb V193F, P10242 | -0.091 ± 0.21 |
| Transcriptional activator Myb A167L, P10242 | -0.224 ± 0.079 |
| Transcriptional activator Myb E150C, P10242 | -0.219 ± 0.1 |
| Transcriptional activator Myb S187T, P10242 | 0.124 ± 0.1 |
| Transcriptional activator Myb E150T, P10242 | -0.103 ± 0.1 |
| Transcriptional activator Myb A180Y, P10242 | -0.803 ± 0.43 |
| Transcriptional activator Myb K143T, P10242 | -0.118 ± 0.11 |
| Transcriptional activator Myb I181W, P10242 | -1.26 ± 0.2 |
| Transcriptional activator Myb R176Y, P10242 | -0.651 ± 0.14 |

| Substance | abundance fitness |
| --- | --- |
| Transcriptional activator Myb V193H, P10242 | -0.033 ± 0.13 |
| Transcriptional activator Myb W166M, P10242 | -0.708 ± 0.15 |
| Transcriptional activator Myb A170K, P10242 | -0.581 ± 0.14 |
| Transcriptional activator Myb E151P, P10242 | -0.758 ± 0.15 |
| Transcriptional activator Myb K171Q, P10242 | -0.084 ± 0.1 |
| Transcriptional activator Myb S187Q, P10242 | 0.125 ± 0.11 |
| Transcriptional activator Myb L199Y, P10242 | -0.175 ± 0.21 |
| Transcriptional activator Myb S187A, P10242 | -0.075 ± 0.093 |
| Transcriptional activator Myb D152Y, P10242 | -0.38 ± 0.12 |
| Transcriptional activator Myb K192L, P10242 | 0.004 ± 0.095 |
| Transcriptional activator Myb W185R, P10242 | -0.686 ± 0.066 |
| Transcriptional activator Myb Y198D, P10242 | -0.035 ± 0.12 |
| Transcriptional activator Myb T177R, P10242 | -0.267 ± 0.047 |
| Transcriptional activator Myb R191M, P10242 | -0.091 ± 0.13 |
| Transcriptional activator Myb R191T, P10242 | 0.022 ± 0.14 |
| Transcriptional activator Myb E196C, P10242 | -0.13 ± 0.089 |
| Transcriptional activator Myb K171G, P10242 | -0.336 ± 0.061 |
| Transcriptional activator Myb M189R, P10242 | -0.303 ± 0.064 |
| Transcriptional activator Myb W166S, P10242 | -0.615 ± 0.091 |
| Transcriptional activator Myb K182E, P10242 | 0.01 ± 0.062 |
| Transcriptional activator Myb T145C, P10242 | -0.218 ± 0.16 |
| Transcriptional activator Myb K144V, P10242 | -0.042 ± 0.085 |
| Transcriptional activator Myb K182P, P10242 | -0.678 ± 0.15 |

| Substance | abundance fitness |
| --- | --- |
| Transcriptional activator Myb L199C, P10242 | -0.076 ± 0.1 |
| Transcriptional activator Myb A180E, P10242 | 0.062 ± 0.098 |
| Transcriptional activator Myb N183M, P10242 | 0.068 ± 0.11 |
| Transcriptional activator Myb V193A, P10242 | -0.074 ± 0.069 |
| Transcriptional activator Myb N183A, P10242 | 0.037 ± 0.094 |
| Transcriptional activator Myb G175N, P10242 | -0.197 ± 0.18 |
| Transcriptional activator Myb E168K, P10242 | -0.279 ± 0.11 |
| Transcriptional activator Myb K204I, P10242 | -0.055 ± 0.16 |
| Transcriptional activator Myb W166L, P10242 | -0.986 ± 0.14 |
| Transcriptional activator Myb N186K, P10242 | 0.065 ± 0.1 |
| Transcriptional activator Myb R191N, P10242 | -0.07 ± 0.13 |
| Transcriptional activator Myb S187K, P10242 | -0.058 ± 0.1 |
| Transcriptional activator Myb K204G, P10242 | -0.166 ± 0.11 |
| Transcriptional activator Myb K192A, P10242 | -0.247 ± 0.12 |
| Transcriptional activator Myb E196A, P10242 | -0.069 ± 0.079 |
| Transcriptional activator Myb Q195I, P10242 | -0.19 ± 0.15 |
| Transcriptional activator Myb W147P, P10242 | -0.532 ± 0.052 |
| Transcriptional activator Myb W185F, P10242 | -0.037 ± 0.075 |
| Transcriptional activator Myb G175K, P10242 | -0.036 ± 0.095 |
| Transcriptional activator Myb Q195G, P10242 | -0.074 ± 0.074 |
| Transcriptional activator Myb A170I, P10242 | -1.45 ± 0.42 |
| Transcriptional activator Myb N186I, P10242 | 0.027 ± 0.1 |
| Transcriptional activator Myb L173R, P10242 | -0.961 ± 0.078 |

| Substance | abundance fitness |
| --- | --- |
| Transcriptional activator Myb E151A, P10242 | -0.597 ± 0.066 |
| Transcriptional activator Myb L199V, P10242 | 0.032 ± 0.065 |
| Transcriptional activator Myb K171I, P10242 | -0.141 ± 0.12 |
| Transcriptional activator Myb Y198G, P10242 | -0.041 ± 0.065 |
| Transcriptional activator Myb I169V, P10242 | -0.343 ± 0.094 |
| Transcriptional activator Myb R176V, P10242 | -0.22 ± 0.066 |
| Transcriptional activator Myb P174H, P10242 | -0.479 ± 0.12 |
| Transcriptional activator Myb E168W, P10242 | -0.79 ± 0.1 |
| Transcriptional activator Myb E149D, P10242 | -0.008 ± 0.27 |
| Transcriptional activator Myb W166N, P10242 | -0.349 ± 0.2 |
| Transcriptional activator Myb P174V, P10242 | -0.127 ± 0.073 |
| Transcriptional activator Myb K204F, P10242 | -0.097 ± 0.19 |
| Transcriptional activator Myb V193W, P10242 | -0.075 ± 0.068 |
| Transcriptional activator Myb K171C, P10242 | -0.238 ± 0.12 |
| Transcriptional activator Myb Y156H, P10242 | -0.021 ± 0.11 |
| Transcriptional activator Myb E194Q, P10242 | -0.125 ± 0.13 |
| Transcriptional activator Myb V193D, P10242 | -0.166 ± 0.087 |
| Transcriptional activator Myb K192C, P10242 | -0.024 ± 0.12 |
| Transcriptional activator Myb Q195P, P10242 | -0.214 ± 0.15 |
| Transcriptional activator Myb I154L, P10242 | -0.187 ± 0.055 |
| Transcriptional activator Myb H184A, P10242 | -0.732 ± 0.07 |
| Transcriptional activator Myb I155H, P10242 | -1.04 ± 0.21 |
| Transcriptional activator Myb S146G, P10242 | -0.159 ± 0.2 |
